In general, EC50 refers to the concentration that produces a half-maximal response. Low values mean higher potency in that assay, high ones lower potency in that assay.

The target of this experiment is T1, Aβ1-42 fibrils (UniProt P05067 672-713).
T1 construct: domain: Aβ1-42; Aggregated (fibrillar) form coated on the ELISA plate; also called fibrillar amyloid-β42; fibrillar Aβ42
The experiment can be described thus: direct-binding ELISA; plate coated with Aβ1-42 fibrils, serial dilutions of antibody, anti-mouse HRP detection. As for the experimental part:
A131-42 fibrils were generated by incubating 0.1 mM A131-42 (JPT Peptide Technologies, Germany) in 10 mM HCl for 3 d at 37° C. A MaxiSorp ELISA plate was coated with […] Aβ₁₋₄₂ fibrils in 0.1M sodium bicarbonate buffer and then blocked with 1% bovine serum albumin.

T1 sequence (P05067 672-713 limits assumed): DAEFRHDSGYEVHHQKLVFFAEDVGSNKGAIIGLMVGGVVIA

B1: 6E10 antibody (antibody, V domains shown)
VH: EVQLQQSGAELVKPGASVKLCTASGFNIKDTYIHWVKQRPEQGLEWIGRFDPVNVNTRYDSRFRGKATITSDASSNTAYLHLNSLTSEDTAVYYCSRSYYNGRRRFTYWGQGTLVTVSA
VL: DIVMTQSPSSLTVTAGEKVALTCKASQSLLSSGNQKNYLTWYQQKPGQPPKLLIYWASIRESGVPDRFTGSGSGTFFTLTISSVQAEDLAVYYCQNDYNYPFTFGSGTKLEIK
In the case of B1, the concentration giving a half-maximal response (EC50) worked out at 1.18 nM.

The values above are taken from US20230030950A1 (UNIVERSITY OF QUEENSLAND, published 2023).
